From patent US10801046B2, “Methods and materials for biosynthesizing multifunctional, multivariate molecules via carbon chain modification” (INVISTA NORTH AMERICA S.A.R.L., priority 2016, dated 2020)

Test: In vivo carboxylate reductase screening, substrate consumption by LC-MS, heptanedioate
Type: cell-based, Escherichia coli
Settings: 541 enzymes screened in vivo
Description: To screen carboxylate reductases in vivo, […] T7- pUC expression vectors was co-transformed into T7 Express lysY/Iq with the phosphopantetheinyl transferase sfp from Bacillus subtilis on a T7-pCDF expression vector. Biological duplicates of the resulting strains were incubated in 0.5 mL of terrific broth containing either 1 g/L heptanedioate or 1 g/L monomethyl heptanedioate and supplemented with 0.4 mM IPTG in 96-well deep well plates. The plates were incubated for 30 h at 30° C. in a shaking incubator. The cells were then pelleted, and culture supernatants from the same strains in media containing either heptanedioate or monomethyl heptanedioate were combined. The combined supernatants were analyzed by LC-MS to determine the concentration of heptanedioate and monomethyl heptanedioate. Carboxylate reductase activity on heptanedioate or monomethyl heptanedioate was reflected by consumption of the respective substrate in the medium.

Molecule	substrate preference, heptanedioic acid to 7-oxoheptanoate
SEQ ID NO: 206: Phytophthora sojae (strain P6497) carboxylate reductase (protein, Phytophthora sojae (strain P6497), Phytophthora sojae (strain P6497) carboxylate reductase) MGAGSSSELPMSQIDFDSYTGKRYTVEVPNTRDATHGPAYEVADKEPVNEDEMTLYHNFLRGCSIEHGTRPLYGRRTVDADTGKAGAFEWLTYNEVKTRVERVASGLKAVGALERQDVVGVFSKNQLEWCLVAHACDRMSYVLVPLYDTLGPDAVPFIVNHTELRVLFCGKKQFDVVMDCVKDCPTLKTIVQFEPVTEQQIQQAAAKNLELRSLEELELLGEADPKRADPPKPTDVSTLCYTSGTTGDPKGVILLQRNYAYVVRQMCKRMQIFPSDVHCSYLPLAHVFERSVLGVLQAHGASAGFYQGDLLTLMDDLVELKPTVFVSVPRLFNRVYDKITQGVAAAGGLKKILFDRALAAKLAGLPEGHKTHALWDALVFSKVRLALGGRVRLIFSGSAPLSAEVKEFMKVVFCCDVAEGYGLSETAAAVTVGSVDMPMGPHVGCPLIYGQVQLEDVPEMGYTSRDKPRPRGEILVKGPMIFSGYYKEPEKTREAIDERGWFHTGDIGCWNADGTLSIIDRKKNIFKLAQGEYVAAEKIENIYAKSKYVAQIFAYGDSLQSCLVGIVVPDPETAEAWAQEKGLTGADASAAKVATNPEFQKAVLADMARVAKEAQLRGFEFVKSVHFHPEPFSLEQGLITPTFKLKRPQLKAHFQQQINMLYEGLK	preferred acting upon heptanedioic acid to form 7-oxoheptanoate
SEQ ID NO: 199: Caenorhabditis elegans carboxylate reductase (protein, Caenorhabditis elegans, Caenorhabditis elegans carboxylate reductase) MVDESDVKSALNGHDRPFTITLAIVLLKIVFFIYDVVTFIPFKIFADPAEKLEKSERVKAEPDNGDPTTPWKNVSAKDGLMNSSFEGIHDLGTQWEECVRRYGNQPCMGTREVLKVHKEKQSNGKIFEKWQMGDYHWRSYAQVDKRVNMIASGLTSLGQQEKEPIILFAETREEWMTTALACMKMNFPIATMYATLGDEAVQFAINEVGAKTIFTSEALISKVKKAMSNGATSIENIIFFDSVDPASRGESVDVDLPFTLLSFDQLLSRGEPYPVPTRSKKDDLAFIMYTSGTTGNPKGVMISHQNIVAVTAGQAFNIVLGPDDRYIGYLPLAHILEVCAEMVVFTKGVRIGYSSAQTLFDRAPKIMKGEHGDCWVLQPTLMACVPAVMDRIFKAVIDEVNANSELFKQLFKTCYERKRSRYEEGYTSFILNKLVFNRIGKLLGGKVRQILSGGAPLSPETQRFMNICFCCPVVQGYGLTETCGGGTIADIHDLSTGTVGPPLTCCEILLQEWAEAGYSPKNDPPQGEILISGPNVALGYFKNDEKTKEEFVKVNGKTFFATGDIGEFREDGSLKIIDRKKDLLKLAHGEYISLGKVETNLLTNPNVDNVCVYGDSNKSFLVALVVPNQKNLTQLASKAGASNDNFEKLCEDKKVVEALQKELAQYGASKLQRVEIPQKIFICHEPWTPASGLLTEALKLKRKNIEKAFRKELDELYK	preferred acting upon heptanedioic acid to form 7-oxoheptanoate
SEQ ID NO: 197: Cyberlindnera jadinii carboxylate reductase (protein, listed as Cyberlindnera jadinii) MNFNQPVNPQPVPGSRVEGYSEIFTNDPPVVLDPSMDTLSKMWNNAVANFANFDCMGVRKFHNTRKQQLDTFFTYDSYAEVDRKKHNISCGIIHLVTHHPKYRELLSIAGKPEFVVGILSPNRYEWMLVDLATRDFSLTNTALYPTLGQQSSQYILSVTESPIIFLTKDQIPKILEIKPELPLLNILVSLDDFDHDDHDLFVRAQSLGVSLVDFRAVEKIGERHPLPKDFNPPTTDTIYTISFTSGTTGNPKGVLIPHEMAACGIISCTMGLESPFELPKGAKRRQFGENVDQHGVQVTALCHLPLAHIYEREISNYALMSGFRLGFPSSTNPAMFFDDLKSIKPHYLASVPRVYNKLDALLKAKVKRGTPPHVVRKTFGLDHCRYLVSGSAPLGVETIKYLKQTLDIGFSVCYGSTETFAGFFFGDAFEDVITNSCGHPSASVQIRLRDVPEMGYHTNETPMRGELMVKGPQVFSEYFKNPKATADSFDKDGWFHTGDIVSMDSERRVYIIDRVKNFFKLQQGEFVTPERIENIYLAHSPLLTQLFVHGDSLQNFLVGVAGISLEYVQEMFKQDFGVAISQDEVLGLLQDPKYKAMLIKQLNHHVSGADLQGFEKIHNIHVDLEPLRLEDEVLTPTMKIKRENAKKKFAPILEKLYTEGSLVVKQKL	preferred acting upon heptanedioic acid to form 7-oxoheptanoate
SEQ ID NO: 196: Chromera velia CCMP2878 carboxylate reductase (protein, Chromera velia CCMP2878, Chromera velia CCMP2878 carboxylate reductase) MGAQCSAKNSLTYSIPYGEPQAEDESALYANPYMPELAGCDGLKSCWENFEVAVSSTGDKPAVGTREKQADGTLGKYVWKSWKEVAETVANLHAGLQSLDAFPLQSFPEESVQQTFKFLGVTGKNREEYLETMLAAYRAGVCLVPLYDTLGENTYEYCINQTGLKTVIVGDLKIASKLLHVAKKCECFKIIVCMDAVSDELKQEANASGVTIHSFEEVCEIGKQKPVDPTPAQSDMEINTICYTSGTTGNPKGVLVTHRALLTALSTSDELFKKEGFKIDFNDTHISYLPYAHVMERAVTEICVRRGMRIAFYSGDTTKIVDDIQLARPTVFFSVPRLYTRIYDRILSQAAAAGGIKKSLFDRALESKLTELRSTGNFTHKLWDAIVFSKIKDVLGGRVRFLVTGSAPMAKEVQEVLKVCFCCPMMEAFGMTETACCGTATAALDPTTGHVGGVVPGILLKVKGIPEMGYSPNDRGENGELMPRGELMVKGAAVFPGYFKEPEKTKEALDADGWLRTGDVCVINPNGSFKIIDRAKNIFKLAQGEYVAPEKIENIYIQCESVAQAFVTGYGTEKVLVCVVVPDEGYAKNWAKEKGLEGDAASLSALCATHGDLEAEVFKQIDAIGKARGLSGIEKAKAVRLYAEPFSVENDLLTATFKLKRHQANKTFKAQIDEMYAELNAKEKARGGS	preferred acting upon heptanedioic acid to form 7-oxoheptanoate
SEQ ID NO: 198: Pestalotiopsis fici W106-1 carboxylate reductase (protein, Pestalotiopsis fici W106-1, Pestalotiopsis fici W106-1 carboxylate reductase) MESYIEKARRYAQPPPPGAPQGVAVPNSKLPGRSAVYRHWRRGDELPDYFDPDLSSGYDMFEQTAKRQPDARCLGYRPYNGSTKSFGPYIWYSYDNVLKRSTDFGKGLAELLEANGVGGRQRPVGLWCANRPEWQFVDLGAMSQSLYSISLYETLGPAATEFLINHAEIPVVCASLEHIPALILAAPRCPSLKLIISLDPLTEEIDAPGTSRKELLSSLAAEKGLQVHDFRDVEKAGQASSRSLNRPRPDDIFTINYTSGTTGNPKGVVLRHSNAVAATVTCLTVYPMRSSDVLCSYLPLAHIYERFVEISAMYGGGSIGYFHGNPLELIDDLKLLRPTIFTSVPRLLNRMGSSIKAATIEQQGVKGALSRYIMETKMANIENDDPAKATNKHMVYDRIWGRKITAALGLDRTVHMMSGSAPLDGGLQQFLRIVFATEIVQGYGSTEMFAICLAQSAGDMSVRNCGGPAACVEVCLLDLPDMGYFSSDQPCPRGELLMRGPNVFSEYYKDDEETSKAFTEDGWFKTGDICAVDELGRFSIIDRRKNLLKLAQGEYISPEHIENVLLAQRPWLAQGYVHGDSAEAHLVGIFGVQPDIFCNFLNRTLGKECKPEDTDQLEAVLQEPEVRSAVVKELAMVGKSAKLNSYEIPRAVRLMIEPFTVENGLLTPTLKLKRPQTAKKFDHLIKEMYAETRKTSTLMAKL	preferred acting upon heptanedioic acid to form 7-oxoheptanoate
